From US20250333486A1, “Anti-HSP90 alpha antibody and uses thereof” (NATIONAL HEALTH RESEARCH INSTITUTES, priority 2021, published 2025)

Experiments:
rHSP90α = molecular target: T1, rHSP90α (Homo sapiens, UniProt P07900); assay: ELISA for HSP90α-binding activities; settings: culture supernatants of six hybridoma clones
T1 construct: recombinant 732-amino acid (a.a.) full-length human HSP90α (rHSP90α; PeproTech Co., Cranbury, NJ, USA); purchased PeproTech Co., Cranbury, NJ, USA
Description: For assaying the HSP90α-binding activities of the prepared antibodies, 96-well plates were coated with 12.5 ng/ml of rHSP90α in the capture buffer (BioLegend, San Diego, CA, USA) by overnight incubation at 4° C. The coated plates were washed twice with PBST and then blocked with PBST plus 3% bovine serum albumin (BSA). The prepared antibodies were applied and incubated 2 h at room temperature. After three washes with PBST, horseradish peroxidase-conjugated secondary antibody was added and incubated at 37° C. for another 1 h. After three washes, 0.3 mg/ml of 3,3′,5,5′-tetramethylbenzidine in 0.015% H2O2 was added into each well and incubated in the dark at room temperature for 10 min. The reactions were stopped by the addition of 0.5 M H2SO4, and OD450 values were measured by an Infinite M200 microplate reader (TECAN, Männedorf, Switzerland). Additionally, the immunoglobulin (IgG) isotype characterization of anti-HSP90α antibodies was performed by using the Mouse Ig Isotyping ELISA Ready-Set-Go!™ Kit (eBioscience™, Thermo Fisher Scientific, Waltham, MA, USA). The ELISA protocol was also used to assay the secreted HSP90α levels of mouse serum samples as described previously. See Chen J S, Hsu Y M, Chen C C, Chen L L, Lee C C, Huang T S. Secreted heat shock protein 90α induces colorectal cancer cell invasion through CD91/LRP-1 and NF-κB-mediated integrin αV expression. […]

[1] = molecular target: T2, associations of CD91 with HSP90α and IKKα (Homo sapiens, UniProt P07900); assay: Proximity ligation assay (PLA) in PANC-1 cells; format: cell-based; settings: 15 μg/ml rHSP90α, 10 μg/ml antibody
T2 construct: recombinant 732-amino acid (a.a.) full-length human HSP90α (rHSP90α; PeproTech Co., Cranbury, NJ, USA); purchased PeproTech Co., Cranbury, NJ, USA; host or cells: PANC-1 cells (CD91 and IKKα endogenous)
Description: PANC-1 cells seeded onto glass coverslips at a density of 2×10^5 cells per 22×22-mm coverslip were incubated 16 h with 0.5% serum-containing medium at 37° C. plus a 5% CO2 humidified atmosphere. The cells were then added with PBS or 15 μg/ml of rHSP90α in the absence or presence of 10 μg/ml of control IgG or the tested anti-HSP90α antibody for another 24-h incubation. The treated cells were then fixed with 3% paraformaldehyde and blocked with the blocking solution provided in the Duolink in situ PLA kit (Olink Bioscience, Uppsala, Sweden). Furthermore, the cell samples were incubated overnight at 4° C. with anti-CD91 antibody (1:80, cat. #550495, BD Biosciences, San Jose, CA, USA) mixed with anti-HSP90α antibody (1:80, cat. #AHP-1339, AbD Serotec, Raleigh, NC, USA) or anti-IKKα antibody (1:80, cat. #3285, Epitomics Co., Burlingame, CA, USA). After washed trice with Tris-buffered saline plus 0.05% Tween 20, the cell samples were incubated with PLA probes for the subsequent ligation and amplification procedure according to the manufacturer's instructions for the Duolink in situ PLA kit. Finally, nuclei were counterstained with 4′,6′-diamidino-2-phenylindole (DAPI; Sigma-Aldrich). Images were photographed and analyzed using Leica TCS SP5 II confocal microscope and LAS AF Lite 4.0 software (Leica, Wetzlar, Germany).

SW620 and PANC-1 cells = assay: Transwell invasion assay, rHSP90α-induced cancer cell invasion; format: cell-based, human; settings: SW620 and PANC-1, 15 μg/ml rHSP90α plus 10 μg/ml antibody
Description: (§1) In a 37° C. and 5% CO2 humidified incubator, cancer cells were subjected to serum starvation in 0.5% FBS-containing medium for 16 h, and then added with PBS or 15 μg/ml of rHSP90α in the absence or presence of 10 μg/ml of control IgG or the tested anti-HSP90α antibody. After another 24 h, the treated cells were harvested as aliquots (1×10^5 cells per aliquot) in 0.5% FBS-containing culture medium, and then each aliquot was seeded into a top chamber of Transwell inserts pre-coated with 5-fold diluted Matrigel (BD Biosciences). Cells were allowed 16 h to invade through the Matrigel toward the bottom chambers containing culture medium plus 10% FBS. The filters of the Transwell inserts were then fixed and stained with Giemsa. Invasive cells on the lower side of filters were photographed using the Axiovert S100/AxioCam HR microscope system (Carl Zeiss, Oberkochen, Germany) and further quantified by the Image-Pro Plus software (Media Cybernetics, Inc., Silver Spring, MD, USA).

[2] = system: SW620, PANC-1, and Panc 02 cells; assay: Cell spheroid-forming assay, rHSP90α-induced gain-of-stemness; format: cell-based, human and mouse; settings: SW620, PANC-1, Panc 02; 15 μg/ml rHSP90α plus 10 μg/ml antibody
Description: One thousand cancer cells were seeded onto each well of 24-well plates pre-coated with a 4-mm thick layer of 0.5% agarose. After incubation 24 h with serum-free medium at 37° C. plus a 5% CO2 humidified atmosphere, cells were added with PBS or 15 μg/ml of rHSP90α in the absence or presence of 10 μg/ml of control IgG or the tested anti-HSP90α antibody. The incubation was kept for 10-14 days with supplements of some fresh serum-free medium every 3 days. Finally, the cell spheroids characterized by tight, non-adherent, and >100 μm in diameter were photographed and counted under an Olympus IX 71 inverted microscope (Center Valley, PA, USA). The spheroid formation % was calculated by the formula: (number of cell spheroids/1000)×100%.

HSP90α = molecular target: T3, HSP90α (Homo sapiens, UniProt P07900); assay: Epitope determination by ELISA (domain, peptide and alanine scanning); format: binding; settings: full-length and truncated HSP90α
T3 construct: The full-length HSP90α (a.a. 1-732) and its 3 truncated fragments; 8×His; made in house; host or cells: Escherichia coli ClearColi, pET-23a
From the text: The full-length HSP90α (a.a. 1-732) and its 3 truncated fragments including the N-terminal plus Linker domains (a.a. 1-272), N terminus through Middle domain (a.a. 1-629), and C-terminal domain (a.a. 630-732) were cloned, expressed, and purified. Briefly, each cDNA sequence with a 8×His-tag was amplified by PCR from the human ORF Clone (NM_005348) with the primers containing Xho I and BamH I sites. The PCR products were purified, digested with restriction enzymes, and then inserted into pET-23a plasmid (Sigma-Aldrich). The recombinant plasmids were then transformed into Escherichia coli ClearColi® competent cells (Lucigen Co., Middleton, WI, USA), and expressions of the recombinant constructs were stimulated by the addition of isopropyl-D-thiogalacto-pyranoside. The expressed histidine-tagged full-length and truncated HSP90α were further purified by using the Ni—NTA column (Qiagen, Germantown, MD, USA) according to the manufacturer's instructions. The purified proteins were finally dialyzed against the storage buffer consisting of 25 mM Tris-HCl (pH, 7.0), 50 mM NaCl, 0.1% Triton X-100, 50% glycerol, 1 mM EDTA, and 1 mM DTT, and protein concentrations were determined by the Bradford protein assay (Bio-Rad Laboratories, Hercules, USA).
At first, the domain scanning strategy was used to roughly delineate the HSP90α region responsible for the binding with our prepared antibodies. […]

PANC-1 cells = assay: Transwell invasion assay, rHSP90α-induced PANC-1 invasion; format: cell-based, human; settings: 15 μg/ml rHSP90α plus 10 μg/ml antibody
Description: as §1, with “with PBS or 15 μg/ml of rHSP90α in the absence or presence of 10 μg/ml of control IgG or the tested anti-HSP90α antibody.” left out

| Molecule | HSP90α-binding levels (ELISA) (rHSP90α) | blocking of the binding of eHSP90α with its cell-surface receptor CD91 [1] | blocking of the downstream association of CD91 with IKKα [1] | rHSP90α-induced cancer cell invasion (SW620 and PANC-1 cells) | rHSP90α-induced spheroid-forming ability (gain-of-stemness) [2] | HSP90α region bound (domain scanning) (HSP90α) | suppression of rHSP90α-induced invasiveness of PANC-1 cells (PANC-1 cells) |
| --- | --- | --- | --- | --- | --- | --- | --- |
| Clone-2: mouse anti-HSP90α monoclonal antibody, IgG2b κ; VH SEQ ID NO: 2, VL SEQ ID NO: 7 (antibody, V domains shown, Heavy chain variable region; Light chain variable region) VH: EVQVVESGGGLVQPKGSLKLSCAASGFTFKTYAMNWVRQAPGKGLEWVARIRSKSRNYATYYADSVKDRFTISRDDSQFMFYLQMNNLKTEDTAMYYCVVGGSGFDYWGQGTTLTVSS VL: DVLMTQTPLSLPVSLGDQASISCRSSQSIVHSNGNTYLEWYLQKPGQSPKLLIYKVGVPDRFSGSGSGTDFTLSISRVEAGDLGVYYCFQGSHVPWTFGGGTKLEIK | top two HSP90α-binding levels | efficiently blocked | efficiently blocked | drastically abolished | significantly inhibited | bound to the a.a. 1-272 region as well as the full-length protein |  |
| Clone-2-chimera: recombinant IgG1 antibody: Clone-2 VH and VL with human IgG constant domains (antibody, V domains shown) VH: EVQVVESGGGLVQPKGSLKLSCAASGFTFKTYAMNWVRQAPGKGLEWVARIRSKSRNYATYYADSVKDRFTISRDDSQFMFYLQMNNLKTEDTAMYYCVVGGSGFDYWGQGTTLTVSS VL: DVLMTQTPLSLPVSLGDQASISCRSSQSIVHSNGNTYLEWYLQKPGQSPKLLIYKVSNRFSGVPDRFSGSGSGTDFTLSISRVEAGDLGVYYCFQGSHVPWTFGGGTKLEIK |  |  |  |  |  |  | superior to Clone-2-hB, Clone-2-hC, and their parental Clone-2 |
